Measurements taken from patent publication US20160347801A1 (NATIONAL CANCER CENTER, published 2016).
Blank lines part the entries; values can stand above or below the molecule they belong to. Where no end group is shown, it is not given here. [ ]: non-standard residue; d: D form. pT = C[C@@H](OP(=O)(O)O)[C@H](N)C(=O)O

What was measured:
human PLK1-PBD (371-594) [1] = target: T1, human PLK1-PBD (371-594) (human, UniProt P53350 371-594); experiment: fluorescence polarization, FITC peptide 10 nM, PBD 0 to 4 µM
T1 construct: range 371-594; Made in E. coli as a GST fusion (pGEX6p-1); also called PBD of PLK1; purified PBD
T1 sequence (P53350 371-594 limits assumed): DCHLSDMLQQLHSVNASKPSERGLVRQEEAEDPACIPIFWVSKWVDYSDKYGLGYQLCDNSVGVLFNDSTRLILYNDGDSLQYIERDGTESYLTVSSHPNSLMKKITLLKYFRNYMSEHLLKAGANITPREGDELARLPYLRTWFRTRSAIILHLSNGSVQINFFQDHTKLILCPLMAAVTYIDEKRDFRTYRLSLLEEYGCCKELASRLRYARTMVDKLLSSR

[2] = target: T2, NCAPG2 (detected by immunoblotting in Flag-PLK1 immunoprecipitates) (human, UniProt Q86XI2 1-1143, limits assumed); experiment: Flag-bead pull-down, NCAPG2 immunoblot
T2 construct: Apparently the cells' own NCAPG2
T2 sequence: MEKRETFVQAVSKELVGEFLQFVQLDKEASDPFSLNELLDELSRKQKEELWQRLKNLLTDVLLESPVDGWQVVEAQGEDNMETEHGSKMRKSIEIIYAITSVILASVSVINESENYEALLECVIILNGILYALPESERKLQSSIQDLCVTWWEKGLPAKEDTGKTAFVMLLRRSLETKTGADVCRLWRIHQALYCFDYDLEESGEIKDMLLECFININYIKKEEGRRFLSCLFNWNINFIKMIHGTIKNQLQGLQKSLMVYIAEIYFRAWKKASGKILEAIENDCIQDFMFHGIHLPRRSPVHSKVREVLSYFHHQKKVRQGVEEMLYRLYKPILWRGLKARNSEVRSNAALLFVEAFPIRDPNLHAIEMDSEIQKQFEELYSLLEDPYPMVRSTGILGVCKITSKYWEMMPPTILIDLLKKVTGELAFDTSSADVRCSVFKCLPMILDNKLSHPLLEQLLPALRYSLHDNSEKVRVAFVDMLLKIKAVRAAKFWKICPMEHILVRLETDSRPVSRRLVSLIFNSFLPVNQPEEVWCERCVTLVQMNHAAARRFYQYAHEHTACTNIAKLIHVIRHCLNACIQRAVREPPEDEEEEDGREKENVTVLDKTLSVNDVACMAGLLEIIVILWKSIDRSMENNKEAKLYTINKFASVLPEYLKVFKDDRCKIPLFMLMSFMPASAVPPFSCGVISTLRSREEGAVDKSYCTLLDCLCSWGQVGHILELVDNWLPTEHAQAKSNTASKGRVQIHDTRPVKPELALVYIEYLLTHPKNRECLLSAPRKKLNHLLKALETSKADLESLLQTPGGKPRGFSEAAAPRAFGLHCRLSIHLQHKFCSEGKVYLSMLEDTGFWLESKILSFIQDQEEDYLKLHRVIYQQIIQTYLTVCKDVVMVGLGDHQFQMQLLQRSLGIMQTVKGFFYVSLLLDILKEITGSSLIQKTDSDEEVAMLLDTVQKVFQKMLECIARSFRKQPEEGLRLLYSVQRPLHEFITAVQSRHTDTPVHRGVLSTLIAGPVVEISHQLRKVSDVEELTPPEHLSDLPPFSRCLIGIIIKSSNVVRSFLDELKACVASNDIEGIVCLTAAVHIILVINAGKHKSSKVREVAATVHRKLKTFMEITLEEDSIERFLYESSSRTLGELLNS
Procedure: The primary antibodies were purchased from commercial sources as follows: Histon H3 pS10 (Abcam, Cambridge, UK), NCAPG2 (Novus Biological, 1/1000), PLK1 (Novus Biological, 1/1000), BubR1 (BD Biosciences, 1/1000), β-actin (Sigma-Aldrich, 1/5000), and CREST (ImmunoVision, 1/1000). BubR1 676 antibodies (1/10000) were prepared as previously reported (Elowe, S., et al. Tension-sensitive Plk1 phosphorylation on BubR1 regulates the stability of kinetochore microtubule interactions. Genes Dev 21, 2205-19 (2007)). The precipitates were washed with TAP buffer three times at 4° C., re-suspended in 20 μl of 2X Sample buffer (125 mM Tris (pH 6.8), 200 mM DTT, 4% SDS, 20% Glycerol, 0.004% Bromophenol Blue) and proteins were denatured at 100° C. for 5 min.
For the detection of proteins using the immunoblottings, subjects were protein complexes from immunoprecipitation or whole cell lysates harvested from indicated conditions. Whole cells were harvested with lysis buffer (20 mM Tris, 5 mM EDTA, 10 mM Na₄P₂O₇, 100 mM NaF, 2 mM Na₃VO₄, 1% Np-40, 0.2% Protease Inhibitor Cocktail, and 1 mM PMSF) and centrifuged at 10,000 rpm, 4° C., 10 min. Protein concentration was determined using BCA™ protein assay kit (Pierce, Rockford, USA). […]

human PLK2-PBD (451-685) = target: T3, human PLK2-PBD (451-685) (human, UniProt Q9NYY3 451-685); experiment: fluorescence polarization, FITC peptide 10 nM
T3 construct: range 451-685; GST fusion from pGEX6p-1, GST cleaved by 3C protease
T3 sequence (looked up): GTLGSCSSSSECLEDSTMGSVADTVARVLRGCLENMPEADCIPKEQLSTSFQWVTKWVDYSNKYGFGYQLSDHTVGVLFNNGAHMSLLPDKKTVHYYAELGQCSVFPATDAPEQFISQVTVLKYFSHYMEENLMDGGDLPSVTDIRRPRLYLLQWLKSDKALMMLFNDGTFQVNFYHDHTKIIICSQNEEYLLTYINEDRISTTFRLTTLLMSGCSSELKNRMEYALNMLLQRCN
Procedure: (§1) The final protein concentrations ranged from 0 to 4 uM, and the final peptide concentration was 10 nM. Fluorescence polarization was analyzed 30 min after mixing the peptide and proteins in a 96-well plate using an INFINTE 200 PRO (Tecan). Binding curves were fitted using the GraphPad Prism software.

human PLK3-PBD (412-646) = target: T4, human PLK3-PBD (412-646) (human, UniProt Q9H4B4 412-646); experiment: fluorescence polarization, FITC peptide 10 nM
T4 construct: range 412-646; GST fusion from pGEX6p-1, GST cleaved by 3C protease
T4 sequence (looked up): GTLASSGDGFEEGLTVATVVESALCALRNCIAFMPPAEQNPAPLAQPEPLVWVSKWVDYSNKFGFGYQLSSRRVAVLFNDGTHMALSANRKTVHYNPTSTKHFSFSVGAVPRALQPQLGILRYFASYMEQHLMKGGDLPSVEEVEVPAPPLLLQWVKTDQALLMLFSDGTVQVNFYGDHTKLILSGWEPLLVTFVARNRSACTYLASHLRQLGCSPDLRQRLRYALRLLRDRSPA
Procedure: as §1

human PLK1-PBD (371-594) [3] = target: T1, human PLK1-PBD (371-594); experiment: fluorescence polarization, FITC peptide 10 nM
Procedure: as §1

Molecule: FITC-labelled 1010pT peptide (GVLSpTLI)
- Kd (human PLK1-PBD (371-594) [1]): 69.9 nM

B1: Flag-Plk1^FAA (other, UniProt P53350 1-603, looked up)
chain: MSAAVTAGKLARAPADPGKAGVPGVAAPGAPAAAPPAKEIPEVLVDPRSRRRYVRGRFLGKGGFAKCFEISDADTKEVFAGKIVPKSLLLKPHQREKMSMEISIHRSLAHQHVVGFHGFFEDNDFVFVVLELCRRRSLLELHKRRKALTEPEARYYLRQIVLGCQYLHRNRVIHRDLKLGNLFLNEDLEVKIGDFGLATKVEYDGERKKTLCGTPNYIAPEVLSKKGHSFEVDVWSIGCIMYTLLVGKPPFETSCLKETYLRIKKNEYSIPKHINPVAASLIQKMLQTDPTARPTINELLNDEFFTSGYIPARLPITCLTIPPRFSIAPSSLDPSNRKPLTVLNKGLENPLPERPREKEEPVVRETGEVVDCHLSDMLQQLHSVNASKPSERGLVRQEEAEDPACIPIFWVSKFVDYSDKYGLGYQLCDNSVGVLFNDSTRLILYNDGDSLQYIERDGTESYLTVSSHPNSLMKKITLLKYFRNYMSEHLLKAGANITPREGDELARLPYLRTWFRTRSAIILHLSNGSVQINFFQDATALILCPLMAAVTYIDEKRDFRTYRLSLLEEYGCCKELASRLRYARTMVDKLLSSRSASNRLKAS
notes: also called FAA mutant; substrate non recognizable FAA mutant; not shown: Flag tag
- binding result [2]: no binding

B2: FITC-labelled 1010pT peptide (GVLSpTLI) (peptide)
peptide: GVLS[pT]LI
modifications: also: FITC label, site not given here
notes: this peptide carries pThr at the fifth position; also called phosphorylated 7-mer peptide 1006GVLS-pT-LI1012
- binding result (human PLK2-PBD (451-685)): no binding (tested: protein 0 to 4 uM)
- binding result (human PLK3-PBD (412-646)): no binding (tested: protein 0 to 4 uM)

Continued, values first:

- binding result (human PLK1-PBD (371-594) [3]): no binding (tested: protein 0 to 4 uM)
Molecule: GVLSDLI (also: FITC label, site not given here) [FITC-labeled 1010D peptide (GVLSDLI)]

- binding result (human PLK1-PBD (371-594) [3]): no binding (tested: protein 0 to 4 uM)
Molecule: GVLSELI (also: FITC label, site not given here) [FITC-labeled 1010E peptide (GVLSELI)]
